The text below walks through data of patent US12679878B2, “CRF2 receptor agonists and their use in therapy” (SANOFI, priority 2020, dated 2026).

Starred links: 1 amine or outer side, 2 acyl side, 3 side chain; linkers in the order of their positions; H or OH if unused. Non-standard residues stand in square brackets, D forms with d. Residues, ends and D or L forms follow the SMILES beside them. Groups on a side chain read outwards from the residue. *: point of attachment. C18 diacid = O=C(O)CCCCCCCCCCCCCCCCC(=O)*; γGlu = O=C(O)[C@H](CCC(=O)[*:2])N[*:1]; Palmitoyl = CCCCCCCCCCCCCCCC(=O)*; AEEA = NCCOCCOCC(=O)O; Aib = CC(C)(N)C(=O)O

The subject of test [1] is rat CRF2R α receptor. Description: cAMP agonism at rat CRF2R α receptor in A7R5 rat aortic smooth muscle cells (Example 8). In kind it is cell-based. Conditions: cAMP HTRF, A7R5 rat aortic smooth muscle cell line, 0% HSA. On the procedure: Cells were grown in a T175 culture flask placed at 37° C. to near confluence in medium (DMEM/10% FBS) and collected in 2 ml vials in cell culture medium containing 10% DMSO in a concentration of 10-50 million cells/ml. Each vial contained 1.8 ml cells. The vials were slowly frozen to −80° C. in isopropanol and then transferred in liquid nitrogen for storage. Prior to use, frozen cells were thawed quickly at 37° C. and washed (5 min at 900 rpm) with 20 ml cell buffer (1×HBSS; 20 mM HEPES; 0% or 0.1% HSA). Cells were resuspended in assay buffer (cell buffer plus 2 mM IBMX) and adjusted to a cell density of 1 million cells/ml. For measurement, 5 μl cells (final […]) and 5 μL of test compound were added to a 384-well plate, followed by incubation for 30 minutes at room temperature.
The CAMP content of cells was determined using a kit from Cisbio Corp. (cat. no. 62AM4PEC) based on HTRF (Homogenous Time Resolved Fluorescence). After addition of HTRF reagents diluted in lysis buffer (kit components), the plates were incubated for 1 h, followed by measurement of the fluorescence ratio at 665/620 nm. The percent activity value (E %) was calculated by setting 1000 nM of urocortin 2 (UCN2) as 100%. The in vitro potency of the compounds was quantified by determining the concentrations that caused 50% activation of maximal response (EC50).
Using the procedure described in Example 7, the activity of the compounds at the rat CRF2R α receptor was assessed. The A7R5 rat aortic smooth muscle cell line was used in this study.
In general terms: Time-resolved FRET reads energy transfer from a long-lived donor to a nearby acceptor.

The target of test [2] is rat CRF2R α receptor (rat, UniProt P47866 20-411). Description: cell-based or functional assay.
For test [3], the target named is T1, anti-target CRF1R receptor (UniProt P34998 24-415, limits assumed).
T1 sequence (looked up): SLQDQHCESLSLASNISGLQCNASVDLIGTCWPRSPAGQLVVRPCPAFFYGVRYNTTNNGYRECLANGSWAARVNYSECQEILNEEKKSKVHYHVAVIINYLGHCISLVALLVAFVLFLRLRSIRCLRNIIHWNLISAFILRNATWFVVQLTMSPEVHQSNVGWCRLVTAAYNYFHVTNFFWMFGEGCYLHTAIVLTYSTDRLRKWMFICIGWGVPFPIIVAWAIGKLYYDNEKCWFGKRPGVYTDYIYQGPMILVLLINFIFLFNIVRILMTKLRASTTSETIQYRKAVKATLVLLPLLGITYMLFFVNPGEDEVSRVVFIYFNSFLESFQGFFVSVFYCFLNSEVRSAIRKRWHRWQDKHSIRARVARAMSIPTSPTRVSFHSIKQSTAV
Description: cell-based or functional assay.

rat CRF2R α receptor (rat, UniProt P47866 20-411), sequence (P47866 20-411): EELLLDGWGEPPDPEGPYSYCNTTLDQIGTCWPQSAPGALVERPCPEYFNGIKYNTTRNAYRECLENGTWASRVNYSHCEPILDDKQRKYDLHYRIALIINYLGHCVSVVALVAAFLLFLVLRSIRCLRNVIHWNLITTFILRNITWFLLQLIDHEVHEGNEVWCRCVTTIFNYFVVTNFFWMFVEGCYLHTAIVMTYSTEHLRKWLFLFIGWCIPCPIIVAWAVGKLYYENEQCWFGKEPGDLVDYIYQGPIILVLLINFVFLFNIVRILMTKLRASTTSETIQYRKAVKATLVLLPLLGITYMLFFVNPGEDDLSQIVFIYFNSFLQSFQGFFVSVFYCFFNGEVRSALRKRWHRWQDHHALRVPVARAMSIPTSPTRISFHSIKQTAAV

Consider `CC[C@H](C)[C@H](NC(C)=O)C(=O)N[C@H](C(=O)N[C@@H](CC(C)C)C(=O)N[C@@H](CO)C(=O)N[C@@H](CC(C)C)C(=O)N[C@@H](CC(=O)O)C(=O)N[C@@H](C(=O)N1CCC[C@H]1C(=O)N[C@H](C(=O)N[C@@H](CCC(=O)O)C(=O)N[C@@H](CC(C)C)C(=O)N[C@@H](CCCCNC(=O)COCCOCCNC(=O)COCCOCCNC(=O)CC[C@H](NC(=O)CCCCCCCCCCCCCCCCC(=O)O)C(=O)O)C(=O)N[C@@H](CCC(N)=O)C(=O)N[C@H](C(=O)N[C@@H](CC(C)C)C(=O)N[C@@H](CC(C)C)C(=O)N[C@@H](CCC(=O)O)C(=O)N[C@@H](CCC(N)=O)C(=O)N[C@@H](CCC(=O)O)C(=O)N[C@@H](CCCNC(=N)N)C(=O)N[C@@H](CCC(N)=O)C(=O)N[C@@H](CCCCN)C(=O)NC(C)(C)C(=O)N[C@@H](CCC(N)=O)C(=O)N[C@@H](CCCNC(=N)N)C(=O)N[C@@H](CCC(=O)O)C(=O)N[C@@H](CCC(N)=O)C(=O)N[C@@H](C)C(=O)N[C@@H](CCC(=O)O)C(=O)N[C@@H](CCCCN)C(=O)N[C@@H](CC(N)=O)C(=O)N[C@@H](CCCCN)C(=O)N[C@@H](CCC(N)=O)C(=O)N[C@H](C(=O)N[C@@H](CC(C)C)C(=O)N[C@@H](CCC(=O)O)C(=O)N[C@@H](CCC(N)=O)C(=O)N[C@H](C(N)=O)C(C)C)[C@@H](C)CC)[C@@H](C)CC)[C@@H](C)CC)C(C)C)C(C)C` [compound 162] (Ac-IVLSLD[dV]PIELK([AEEA-AEEA-γGlu-C18 diacid])QILLEQERQK[Aib]QREQAEKNKQILEQV-NH2), for which the 50% effective concentration (EC50) in the test with rat CRF2R α receptor [1] worked out at 48.6 nM.
Still for that read-out and setting: the value for `CC[C@H](C)[C@H](N)C(=O)N[C@H](C(=O)N[C@@H](CC(C)C)C(=O)N[C@@H](CO)C(=O)N[C@@H](CC(C)C)C(=O)N[C@@H](CC(=O)O)C(=O)N[C@@H](C(=O)N1CCC[C@H]1C(=O)N[C@H](C(=O)N[C@@H](Cc1c[nH]cn1)C(=O)N[C@@H](CC(C)C)C(=O)N[C@@H](CCCCNC(=O)COCCOCCNC(=O)COCCOCCNC(=O)CC[C@H](NC(=O)CCCCCCCCCCCCCCCCC(=O)O)C(=O)O)C(=O)N[C@@H](CCC(N)=O)C(=O)N[C@H](C(=O)N[C@@H](CC(C)C)C(=O)N[C@@H](CC(C)C)C(=O)N[C@@H](CCC(=O)O)C(=O)N[C@@H](CCC(N)=O)C(=O)N[C@@H](CCC(=O)O)C(=O)N[C@@H](CCCNC(=N)N)C(=O)N[C@@H](CCC(N)=O)C(=O)N[C@@H](CCCCN)C(=O)NC(C)(C)C(=O)N[C@@H](CCC(N)=O)C(=O)N[C@@H](CCCNC(=N)N)C(=O)N[C@@H](CCC(=O)O)C(=O)N[C@@H](CCC(N)=O)C(=O)N[C@@H](C)C(=O)N[C@@H](CCC(=O)O)C(=O)N[C@@H](CCCCN)C(=O)N[C@@H](CC(N)=O)C(=O)N[C@@H](CCCCN)C(=O)N[C@@H](CCC(N)=O)C(=O)N[C@H](C(=O)N[C@@H](CC(C)C)C(=O)N[C@@H](CCC(=O)O)C(=O)N[C@@H](CCC(N)=O)C(=O)N[C@H](C(N)=O)C(C)C)[C@@H](C)CC)[C@@H](C)CC)[C@@H](C)CC)C(C)C)C(C)C` [compound 163] (H-IVLSLD[dV]PIHLK([AEEA-AEEA-γGlu-C18 diacid])QILLEQERQK[Aib]QREQAEKNKQILEQV-NH2; N-terminus assumed) was 1.5 nM; that for `CCCCCCCCCCCCCCCC(=O)N[C@@H](CCC(=O)NCCCC[C@H](NC(=O)[C@H](CC(C)C)NC(=O)[C@H](CCCCN)NC(=O)[C@@H](NC(=O)[C@@H]1CCCN1C(=O)[C@H](NC(=O)[C@H](CC(=O)O)NC(=O)[C@H](CC(C)C)NC(=O)[C@H](CO)NC(=O)[C@H](CC(C)C)NC(=O)[C@@H](NC(=O)[C@@H](N)[C@@H](C)CC)C(C)C)C(C)C)[C@@H](C)CC)C(=O)N[C@@H](CCC(N)=O)C(=O)N[C@@H](CCCCN)C(=O)N[C@@H](CC(C)C)C(=O)N[C@@H](CC(C)C)C(=O)N[C@@H](CCCCN)C(=O)N[C@@H](CCC(N)=O)C(=O)N[C@@H](CCC(N)=O)C(=O)N[C@@H](CCCNC(=N)N)C(=O)N[C@@H](CCC(N)=O)C(=O)N[C@@H](CCCNC(=N)N)C(=O)N[C@@H](CCCCN)C(=O)N[C@@H](CCC(=O)O)C(=O)N[C@@H](CCCNC(=N)N)C(=O)N[C@@H](CCC(N)=O)C(=O)N[C@@H](CCC(N)=O)C(=O)N[C@@H](C)C(=O)N[C@@H](CCC(=O)O)C(=O)N[C@@H](CCCCN)C(=O)N[C@@H](CC(N)=O)C(=O)N[C@@H](CCCCN)C(=O)N[C@@H](CCCNC(=N)N)C(=O)N[C@H](C(=O)N[C@@H](CC(C)C)C(=O)N[C@@H](CCC(=O)O)C(=O)N[C@@H](CCCNC(=N)N)C(=O)N[C@H](C(N)=O)C(C)C)[C@@H](C)CC)C(=O)O` [compound 227] (H-IVLSLD[dV]PIKLK([γGlu-Palmitoyl])QKLLKQQRQRKERQQAEKNKRILERV-NH2) was 0.61 nM.

B1: peptide of SEQ ID NO: 166 (peptide)
peptide: Ac-IVLSLD[dV]PIKLK([AEEA-AEEA-γGlu-C18 diacid])QILLEQERQK[Aib]QREQAEKNEQILEQV-NH2
SMILES: CC[C@H](C)[C@H](NC(C)=O)C(=O)N[C@H](C(=O)N[C@@H](CC(C)C)C(=O)N[C@@H](CO)C(=O)N[C@@H](CC(C)C)C(=O)N[C@@H](CC(=O)O)C(=O)N[C@@H](C(=O)N1CCC[C@H]1C(=O)N[C@H](C(=O)N[C@@H](CCCCN)C(=O)N[C@@H](CC(C)C)C(=O)N[C@@H](CCCCNC(=O)COCCOCCNC(=O)COCCOCCNC(=O)CC[C@H](NC(=O)CCCCCCCCCCCCCCCCC(=O)O)C(=O)O)C(=O)N[C@@H](CCC(N)=O)C(=O)N[C@H](C(=O)N[C@@H](CC(C)C)C(=O)N[C@@H](CC(C)C)C(=O)N[C@@H](CCC(=O)O)C(=O)N[C@@H](CCC(N)=O)C(=O)N[C@@H](CCC(=O)O)C(=O)N[C@@H](CCCNC(=N)N)C(=O)N[C@@H](CCC(N)=O)C(=O)N[C@@H](CCCCN)C(=O)NC(C)(C)C(=O)N[C@@H](CCC(N)=O)C(=O)N[C@@H](CCCNC(=N)N)C(=O)N[C@@H](CCC(=O)O)C(=O)N[C@@H](CCC(N)=O)C(=O)N[C@@H](C)C(=O)N[C@@H](CCC(=O)O)C(=O)N[C@@H](CCCCN)C(=O)N[C@@H](CC(N)=O)C(=O)N[C@@H](CCC(=O)O)C(=O)N[C@@H](CCC(N)=O)C(=O)N[C@H](C(=O)N[C@@H](CC(C)C)C(=O)N[C@@H](CCC(=O)O)C(=O)N[C@@H](CCC(N)=O)C(=O)N[C@H](C(N)=O)C(C)C)[C@@H](C)CC)[C@@H](C)CC)[C@@H](C)CC)C(C)C)C(C)C
For the molecule B1, the “EC50 [nM], 0% HSA (cAMP, A7R5 cells)” value with rat CRF2R α receptor [2] was found to be 9.99 nM. In test [3], the “EC50[nM] 0% HSA (cAMP, CRF1R-overexpression CHO cells)” value is more than 1000 nM and the “Emax (%) (cAMP, CRF1R-overexpression CHO cells)” value is 5.94%.

B2: peptide of SEQ ID NO: 167 (peptide)
peptide: Ac-IVLSLD[dV]PIGLK([AEEA-AEEA-γGlu-C18 diacid])QILLEQERQK[Aib]QREQAEKNEQILEQV-NH2
SMILES: CC[C@H](C)[C@H](NC(C)=O)C(=O)N[C@H](C(=O)N[C@@H](CC(C)C)C(=O)N[C@@H](CO)C(=O)N[C@@H](CC(C)C)C(=O)N[C@@H](CC(=O)O)C(=O)N[C@@H](C(=O)N1CCC[C@H]1C(=O)N[C@H](C(=O)NCC(=O)N[C@@H](CC(C)C)C(=O)N[C@@H](CCCCNC(=O)COCCOCCNC(=O)COCCOCCNC(=O)CC[C@H](NC(=O)CCCCCCCCCCCCCCCCC(=O)O)C(=O)O)C(=O)N[C@@H](CCC(N)=O)C(=O)N[C@H](C(=O)N[C@@H](CC(C)C)C(=O)N[C@@H](CC(C)C)C(=O)N[C@@H](CCC(=O)O)C(=O)N[C@@H](CCC(N)=O)C(=O)N[C@@H](CCC(=O)O)C(=O)N[C@@H](CCCNC(=N)N)C(=O)N[C@@H](CCC(N)=O)C(=O)N[C@@H](CCCCN)C(=O)NC(C)(C)C(=O)N[C@@H](CCC(N)=O)C(=O)N[C@@H](CCCNC(=N)N)C(=O)N[C@@H](CCC(=O)O)C(=O)N[C@@H](CCC(N)=O)C(=O)N[C@@H](C)C(=O)N[C@@H](CCC(=O)O)C(=O)N[C@@H](CCCCN)C(=O)N[C@@H](CC(N)=O)C(=O)N[C@@H](CCC(=O)O)C(=O)N[C@@H](CCC(N)=O)C(=O)N[C@H](C(=O)N[C@@H](CC(C)C)C(=O)N[C@@H](CCC(=O)O)C(=O)N[C@@H](CCC(N)=O)C(=O)N[C@H](C(N)=O)C(C)C)[C@@H](C)CC)[C@@H](C)CC)[C@@H](C)CC)C(C)C)C(C)C
As for B2, the “EC50 [nM], 0% HSA (cAMP, A7R5 cells)” value with rat CRF2R α receptor [2] is 76.9 nM. In test [3], the “EC50[nM] 0% HSA (cAMP, CRF1R-overexpression CHO cells)” value is more than 1000 nM and the “Emax (%) (cAMP, CRF1R-overexpression CHO cells)” value was -0.46%.

Usually EC50 stands for the concentration needed to bring the measured effect to its halfway point.
